Experimental data from patent publication US20230381333A1 (HANMI PHARM, published 2023).
Bridge positions count the residues as written; N and C are the ends. Square brackets hold non-standard residues; d marks the D form. Ends that are not written are not given here. * marks the point of attachment. Acetyl(2-(4-imidazolyl)) = O=C(Cc1c[nH]cn1)*; Aib = CC(C)(N)C(=O)O

target: human GCG receptor (human, UniProt P47871 26-477); assay: cell-based or functional assay
Sequence (P47871 26-477): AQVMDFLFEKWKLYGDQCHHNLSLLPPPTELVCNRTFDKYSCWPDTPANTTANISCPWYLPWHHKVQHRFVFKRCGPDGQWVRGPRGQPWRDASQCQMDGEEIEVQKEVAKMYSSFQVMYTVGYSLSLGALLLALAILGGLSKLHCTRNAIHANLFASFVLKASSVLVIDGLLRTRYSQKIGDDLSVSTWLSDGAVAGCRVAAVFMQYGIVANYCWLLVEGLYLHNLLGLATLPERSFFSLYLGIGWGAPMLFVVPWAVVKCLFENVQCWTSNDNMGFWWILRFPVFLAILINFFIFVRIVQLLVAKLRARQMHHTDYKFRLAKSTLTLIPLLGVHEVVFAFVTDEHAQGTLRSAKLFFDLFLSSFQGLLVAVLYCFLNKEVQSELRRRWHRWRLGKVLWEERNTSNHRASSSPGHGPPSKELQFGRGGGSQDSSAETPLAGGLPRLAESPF

**Q.** Which “In vitro activity compared to native-type peptide (%), vs Glucagon” value (“In vitro activity … (%), vs Glucagon” below) does the source give for [Acetyl(2-(4-imidazolyl))]GQGTFTSDLSIQYEEEAQQDFVEWLKDTGPSSGAPPPSHG [triple agonist of SEQ ID NO: 20] here?
**A.** < 0.1%

**Q.** For Y[Aib]QGTFTSDYSKYLDECRAKEFVQWLLDHHPSSGQPPPS (bridge 16-20) [triple agonist of SEQ ID NO: 21], which “In vitro activity … (%), vs Glucagon” value is on record?
**A.** 267%

**Q.** How did the “In vitro activity … (%), vs Glucagon” value turn out when Y[Aib]QGTFTSDYSKCLDEKRAKEFVQWLLDHHPSSGQPPPS (bridge 16-20) [triple agonist of SEQ ID NO: 22] was run?
**A.** 140%

**Q.** How did the “In vitro activity … (%), vs Glucagon” value turn out when Y[Aib]QGTFTSDYSKYLDECRAKEFVQWLLAQKGKKNDWKHNIT (bridge 16-20) [triple agonist of SEQ ID NO: 23] was run?
**A.** 9.3%

**Q.** H[Aib]QGTFTSDVSSYLLGQAAKQFIAWLVKGGGPSSGAPPPSC [triple agonist of SEQ ID NO: 3] was tested. Which “In vitro activity … (%), vs Glucagon” value did it give?
**A.** < 0.1%

**Q.** Y[Aib]QGTFTSDYSKYLDECRAKEFVQWLKNGGPSSGAPPPS (bridge 16-20) [triple agonist of SEQ ID NO: 24] was tested. Which “In vitro activity … (%), vs Glucagon” value did it give?
**A.** 9.3%

**Q.** H[Aib]QGTFTSDCSKYLDERAAQDFVQWLLDGGPSSGAPPPS [triple agonist of SEQ ID NO: 25] was tested. Which “In vitro activity … (%), vs Glucagon” value did it give?
**A.** 0.1%

**Q.** For H[Aib]QGTFTSDCSKYLDSRAAQDFVQWLLDGGPSSGAPPPS [triple agonist of SEQ ID NO: 26], which “In vitro activity … (%), vs Glucagon” value is on record?
**A.** 0.2%

**Q.** For H[Aib]QGTFTSDYSKYLDERACQDFVQWLLDQGGPSSGAPPPS [triple agonist of SEQ ID NO: 27], which “In vitro activity … (%), vs Glucagon” value is on record?
**A.** 0.8%

**Q.** Which “In vitro activity … (%), vs Glucagon” value does the source give for H[Aib]QGTFTSDYSKYLDEKRAQEFVCWLLAQKGKKNDWKHNIT [triple agonist of SEQ ID NO: 28] here?
**A.** 1.6%

**Q.** For H[Aib]QGTFTSDYSKYLDEKAAKEFVQWLLNTC (bridge 16-20) [triple agonist of SEQ ID NO: 29], which “In vitro activity … (%), vs Glucagon” value is on record?
**A.** 6%

**Q.** How did the “In vitro activity … (%), vs Glucagon” value turn out when H[Aib]QGTFTSDYSKYLDEKAQKEFVQWLLDTC (bridge 16-20) [triple agonist of SEQ ID NO: 30] was run?
**A.** 0.7%

**Q.** H[Aib]QGTFTSDYSKYLDEKACKEFVQWLLAQ (bridge 16-20) [triple agonist of SEQ ID NO: 31] was tested. Which “In vitro activity … (%), vs Glucagon” value did it give?
**A.** 2.2%

**Q.** How did the “In vitro activity … (%), vs Glucagon” value turn out when H[Aib]QGTFTSDYSKYLDEKACKDFVQWLLDGGPSSGAPPPS (bridge 16-20) [triple agonist of SEQ ID NO: 32] was run?
**A.** 1.7%

**Q.** Which “In vitro activity … (%), vs Glucagon” value does the source give for H[Aib]QGTFTSDYSIAMDEIHQKDFVNWLLAQKC (bridge 16-20) [triple agonist of SEQ ID NO: 33] here?
**A.** < 0.1%

target: T1, human GIP receptor (human, UniProt P48546 22-466); assay: cell-based or functional assay
T1 sequence (looked up): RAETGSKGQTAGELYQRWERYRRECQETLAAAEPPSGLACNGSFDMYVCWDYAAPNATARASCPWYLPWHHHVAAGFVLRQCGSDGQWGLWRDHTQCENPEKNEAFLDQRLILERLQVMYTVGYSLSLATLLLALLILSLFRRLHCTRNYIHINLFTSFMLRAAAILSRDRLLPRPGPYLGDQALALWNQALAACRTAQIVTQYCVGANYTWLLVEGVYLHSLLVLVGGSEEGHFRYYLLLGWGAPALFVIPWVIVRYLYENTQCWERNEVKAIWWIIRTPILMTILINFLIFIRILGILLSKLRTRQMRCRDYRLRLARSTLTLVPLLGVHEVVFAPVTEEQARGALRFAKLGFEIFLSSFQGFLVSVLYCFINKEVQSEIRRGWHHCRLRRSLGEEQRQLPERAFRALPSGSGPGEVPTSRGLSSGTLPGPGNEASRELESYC

**Q.** How did the “In vitro activity compared to native-type peptide (%), vs GIP” value (“In vitro activity … (%), vs GIP” below) turn out when [Acetyl(2-(4-imidazolyl))]GQGTFTSDLSIQYEEEAQQDFVEWLKDTGPSSGAPPPSHG [triple agonist of SEQ ID NO: 20] was run?
**A.** < 0.1%

**Q.** For Y[Aib]QGTFTSDYSKYLDECRAKEFVQWLLDHHPSSGQPPPS (bridge 16-20) [triple agonist of SEQ ID NO: 21], which “In vitro activity … (%), vs GIP” value is on record?
**A.** 22.7%

**Q.** How did the “In vitro activity … (%), vs GIP” value turn out when Y[Aib]QGTFTSDYSKCLDEKRAKEFVQWLLDHHPSSGQPPPS (bridge 16-20) [triple agonist of SEQ ID NO: 22] was run?
**A.** 59.7%

**Q.** With Y[Aib]QGTFTSDYSKYLDECRAKEFVQWLLAQKGKKNDWKHNIT (bridge 16-20) [triple agonist of SEQ ID NO: 23] as the binder, how does the “In vitro activity … (%), vs GIP” value read?
**A.** < 0.1%

**Q.** With H[Aib]QGTFTSDVSSYLLGQAAKQFIAWLVKGGGPSSGAPPPSC [triple agonist of SEQ ID NO: 3] as the binder, how does the “In vitro activity … (%), vs GIP” value read?
**A.** < 0.1%

**Q.** Which “In vitro activity … (%), vs GIP” value does the source give for Y[Aib]QGTFTSDYSKYLDECRAKEFVQWLKNGGPSSGAPPPS (bridge 16-20) [triple agonist of SEQ ID NO: 24] here?
**A.** < 0.1%

**Q.** With H[Aib]QGTFTSDCSKYLDERAAQDFVQWLLDGGPSSGAPPPS [triple agonist of SEQ ID NO: 25] as the binder, how does the “In vitro activity … (%), vs GIP” value read?
**A.** < 0.1%

**Q.** Which “In vitro activity … (%), vs GIP” value does the source give for H[Aib]QGTFTSDCSKYLDSRAAQDFVQWLLDGGPSSGAPPPS [triple agonist of SEQ ID NO: 26] here?
**A.** < 0.1%

**Q.** H[Aib]QGTFTSDYSKYLDERACQDFVQWLLDQGGPSSGAPPPS [triple agonist of SEQ ID NO: 27] was tested. Which “In vitro activity … (%), vs GIP” value did it give?
**A.** 0.9%

**Q.** With H[Aib]QGTFTSDYSKYLDEKRAQEFVCWLLAQKGKKNDWKHNIT [triple agonist of SEQ ID NO: 28] as the binder, how does the “In vitro activity … (%), vs GIP” value read?
**A.** < 0.1%

**Q.** How did the “In vitro activity … (%), vs GIP” value turn out when H[Aib]QGTFTSDYSKYLDEKAAKEFVQWLLNTC (bridge 16-20) [triple agonist of SEQ ID NO: 29] was run?
**A.** < 0.1%

**Q.** For H[Aib]QGTFTSDYSKYLDEKAQKEFVQWLLDTC (bridge 16-20) [triple agonist of SEQ ID NO: 30], which “In vitro activity … (%), vs GIP” value is on record?
**A.** 0.8%

**Q.** How did the “In vitro activity … (%), vs GIP” value turn out when H[Aib]QGTFTSDYSKYLDEKACKEFVQWLLAQ (bridge 16-20) [triple agonist of SEQ ID NO: 31] was run?
**A.** 2.4%

**Q.** For H[Aib]QGTFTSDYSKYLDEKACKDFVQWLLDGGPSSGAPPPS (bridge 16-20) [triple agonist of SEQ ID NO: 32], which “In vitro activity … (%), vs GIP” value is on record?
**A.** 8.8%

**Q.** For H[Aib]QGTFTSDYSIAMDEIHQKDFVNWLLAQKC (bridge 16-20) [triple agonist of SEQ ID NO: 33], which “In vitro activity … (%), vs GIP” value is on record?
**A.** 10.4%

target: human GLP-1 receptor (human, UniProt P43220 24-463); assay: cell-based or functional assay

**Q.** How did the “In vitro activity compared to native-type peptide (%), vs GLP-1” value (shortened to “In vitro activity … (%), vs GLP-1”) turn out when [Acetyl(2-(4-imidazolyl))]GQGTFTSDLSIQYEEEAQQDFVEWLKDTGPSSGAPPPSHG [triple agonist of SEQ ID NO: 20] was run?
**A.** < 0.1%

**Q.** Y[Aib]QGTFTSDYSKYLDECRAKEFVQWLLDHHPSSGQPPPS (bridge 16-20) [triple agonist of SEQ ID NO: 21] was tested. Which “In vitro activity … (%), vs GLP-1” value did it give?
**A.** 17.8%

**Q.** Which “In vitro activity … (%), vs GLP-1” value does the source give for Y[Aib]QGTFTSDYSKCLDEKRAKEFVQWLLDHHPSSGQPPPS (bridge 16-20) [triple agonist of SEQ ID NO: 22] here?
**A.** 20.1%

**Q.** Which “In vitro activity … (%), vs GLP-1” value does the source give for Y[Aib]QGTFTSDYSKYLDECRAKEFVQWLLAQKGKKNDWKHNIT (bridge 16-20) [triple agonist of SEQ ID NO: 23] here?
**A.** 4.01%

**Q.** With H[Aib]QGTFTSDVSSYLLGQAAKQFIAWLVKGGGPSSGAPPPSC [triple agonist of SEQ ID NO: 3] as the binder, how does the “In vitro activity … (%), vs GLP-1” value read?
**A.** 1.8%

**Q.** With Y[Aib]QGTFTSDYSKYLDECRAKEFVQWLKNGGPSSGAPPPS (bridge 16-20) [triple agonist of SEQ ID NO: 24] as the binder, how does the “In vitro activity … (%), vs GLP-1” value read?
**A.** 41.2%

**Q.** H[Aib]QGTFTSDCSKYLDERAAQDFVQWLLDGGPSSGAPPPS [triple agonist of SEQ ID NO: 25] was tested. Which “In vitro activity … (%), vs GLP-1” value did it give?
**A.** 82.6%

**Q.** Which “In vitro activity … (%), vs GLP-1” value does the source give for H[Aib]QGTFTSDCSKYLDSRAAQDFVQWLLDGGPSSGAPPPS [triple agonist of SEQ ID NO: 26] here?
**A.** 64.5%

**Q.** For H[Aib]QGTFTSDYSKYLDERACQDFVQWLLDQGGPSSGAPPPS [triple agonist of SEQ ID NO: 27], which “In vitro activity … (%), vs GLP-1” value is on record?
**A.** 83.1%

**Q.** Which “In vitro activity … (%), vs GLP-1” value does the source give for H[Aib]QGTFTSDYSKYLDEKRAQEFVCWLLAQKGKKNDWKHNIT [triple agonist of SEQ ID NO: 28] here?
**A.** 17.2%

**Q.** H[Aib]QGTFTSDYSKYLDEKAAKEFVQWLLNTC (bridge 16-20) [triple agonist of SEQ ID NO: 29] was tested. Which “In vitro activity … (%), vs GLP-1” value did it give?
**A.** 38.5%

**Q.** For H[Aib]QGTFTSDYSKYLDEKAQKEFVQWLLDTC (bridge 16-20) [triple agonist of SEQ ID NO: 30], which “In vitro activity … (%), vs GLP-1” value is on record?
**A.** 142%

**Q.** For H[Aib]QGTFTSDYSKYLDEKACKEFVQWLLAQ (bridge 16-20) [triple agonist of SEQ ID NO: 31], which “In vitro activity … (%), vs GLP-1” value is on record?
**A.** 135%

**Q.** Which “In vitro activity … (%), vs GLP-1” value does the source give for H[Aib]QGTFTSDYSKYLDEKACKDFVQWLLDGGPSSGAPPPS (bridge 16-20) [triple agonist of SEQ ID NO: 32] here?
**A.** 151%

**Q.** For H[Aib]QGTFTSDYSIAMDEIHQKDFVNWLLAQKC (bridge 16-20) [triple agonist of SEQ ID NO: 33], which “In vitro activity … (%), vs GLP-1” value is on record?
**A.** 24.5%
